To fix the notation:
T1: human amylin-3 (a) receptor (human, UniProt P30988 25-474; O60896 24-148)
T1 sequence (looked up) 1: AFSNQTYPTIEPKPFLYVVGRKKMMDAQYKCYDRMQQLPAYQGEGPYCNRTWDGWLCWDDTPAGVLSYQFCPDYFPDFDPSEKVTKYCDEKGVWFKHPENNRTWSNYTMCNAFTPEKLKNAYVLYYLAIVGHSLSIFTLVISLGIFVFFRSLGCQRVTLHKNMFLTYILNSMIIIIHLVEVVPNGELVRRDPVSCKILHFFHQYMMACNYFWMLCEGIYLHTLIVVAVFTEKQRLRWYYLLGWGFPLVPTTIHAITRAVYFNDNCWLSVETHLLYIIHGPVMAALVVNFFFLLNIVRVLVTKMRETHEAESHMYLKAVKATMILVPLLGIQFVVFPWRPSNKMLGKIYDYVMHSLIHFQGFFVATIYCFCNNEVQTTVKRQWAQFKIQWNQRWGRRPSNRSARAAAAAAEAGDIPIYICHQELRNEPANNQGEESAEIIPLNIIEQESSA
T1 sequence (looked up) 2: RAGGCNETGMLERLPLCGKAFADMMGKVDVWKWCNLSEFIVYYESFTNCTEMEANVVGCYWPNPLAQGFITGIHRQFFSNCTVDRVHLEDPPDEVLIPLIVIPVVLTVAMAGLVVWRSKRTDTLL

B1: Compound 0086 (peptide)
peptide: H[Aib]EGTFTSDVSSYLEEQAARK([AEEA-AEEA-γGlu-C16 diacid])FIEWLVRGK([AEEA-AEEA-γGlu-C16 diacid])GEGGEASELSTAALGRLSAELHELATLPRTETGSGSP-NH2
B2: Compound 0076 (peptide)
peptide: H[Aib]EGTFTSDVSSYLEEQAARK([AEEA-AEEA-γGlu-C16 diacid])FIAWLVRGK([AEEA-AEEA-γGlu-C16 diacid])GGGEASELSTAALGRLSAELHELATLPRTETGSGSP-NH2
B3: Compound 0083 (peptide)
peptide: H[Aib]EGTFTSDVSSYLEGQAAREFIAWLVRGRK([AEEA-AEEA-γGlu-C18 diacid])GQEPGQAPEASELSTAALGRLSAELHELATLPRTETGSGSP-NH2
B4: Compound 0010 (peptide)
peptide: H[Aib]EGTFTSDVSSYLEGQAAREFIAWLVRGRGEGEGEK([AEEA-AEEA-γGlu-C18 diacid])EASELSTAALGRLSAELHELATLPRTETGSGSP-NH2
B5: Compound 0660 (peptide)
peptide: H[Aib]EGTFTSDVSSYLEEQAAREFIAWLVRGRK([AEEA-γGlu-C18 diacid])GGGGEASELSTAALGRLSAELHELATLPRTETGSGSP-NH2
B6: Compound 0084 (peptide)
peptide: H[Aib]EGTFTSDVSSYLEGQAAREFIAWLVRGRGQEPK([AEEA-AEEA-γGlu-C18 diacid])GQAPEASELSTAALGRLSAELHELATLPRTETGSGSP-NH2
B7: Compound 0075 (peptide)
peptide: H[Aib]EGTFTSDVSSYLEGQAAK([AEEA-AEEA-γGlu-C16 diacid])EFIAWLVRGK([AEEA-AEEA-γGlu-C16 diacid])GGGEASELSTAALGRLSAELHELATLPRTETGSGSP-NH2
B8: Compound 0087 (peptide)
peptide: HGEGTFTSDVSSYLEEQAARK([AEEA-AEEA-γGlu-C16 diacid])FIEWLVRGK([AEEA-AEEA-γGlu-C16 diacid])GEGGEASELSTAALGRLSAELHELATLPRTETGSGSP-NH2
B9: Compound 0661 (peptide)
peptide: H[Aib]EGTFTSDVSSYLEEQAAREFIAWLVRGRK([AEEA-AEEA-AEEA-γGlu-C18 diacid])GGGGEASELSTAALGRLSAELHELATLPRTETGSGSP-NH2
B10: Compound 0094 (peptide)
peptide: H[Aib]EGTFTSDVSSYLEGQAAK([AEEA-AEEA-γGlu-C20 diacid])EFIAWLVRGRGGGGGGGGGEASELSTAALGRLSAELHELATLPRTETGSGSP-NH2
B11: Compound 0074 (peptide)
peptide: H[Aib]EGTFTSDVSSYLEEQAARK([AEEA-AEEA-γGlu-C16 diacid])FIAWLVRGRGGK([AEEA-AEEA-γGlu-C16 diacid])EASELSTAALGRLSAELHELATLPRTETGSGSP-NH2
B12: Compound 0662 (peptide)
peptide: H[Aib]EGTFTSDVSSYLEEQAAREFIAWLVRGRK([AEEA-AEEA-AEEA-AEEA-γGlu-C18 diacid])GGGGEASELSTAALGRLSAELHELATLPRTETGSGSP-NH2
B13: Compound 0659 (peptide)
peptide: H[Aib]EGTFTSDVSSYLEEQAAREFIAWLVRGRK([Ahx-Ahx-γGlu-C20 diacid])GGGGEASELSTAALGRLSAELHELATLPRTETGSGSP-NH2
B14: Compound 0077 (peptide)
peptide: H[Aib]EGTFTSDVSSYLEEQAARK([AEEA-AEEA-γGlu-C16 diacid])FIAWLVK([AEEA-AEEA-γGlu-C16 diacid])GRGGGEASELSTAALGRLSAELHELATLPRTETGSGSP-NH2
B15: Compound 0093 (peptide)
peptide: H[Aib]EGTFTSDVSSYLEGQAAK([AEEA-AEEA-γGlu-C18 diacid])EFIAWLVRGRGGGGGGGGGGGGGGGGGEASELSTAALGRLSAELHELATLPRTETGSGSP-NH2
B16: Compound 0090 (peptide)
peptide: HGEGTFTSDVSSYLEEQAARK([AEEA-AEEA-γGlu-C18 diacid])FIEWLVRGK([AEEA-AEEA-γGlu-C18 diacid])GEGGEASELSTAALGRLSAELHELATLPRTETGSGSP-NH2
B17: Compound 0089 (peptide)
peptide: H[Aib]EGTFTSDVSSYLEEQAARK([AEEA-AEEA-γGlu-C18 diacid])FIEWLVRGK([AEEA-AEEA-γGlu-C18 diacid])GEGGEASELSTAALGRLSAELHELATLPRTETGSGSP-NH2
B18: Compound 0663 (peptide)
peptide: H[Aib]EGTFTSDVSSYLEEQAAREFIAWLVRGRK([AEEA-AEEA-AEEA-AEEA-γGlu-C20 diacid])GGGGEASELSTAALGRLSAELHELATLPRTETGSGSP-NH2
B19: Compound 0085 (peptide)
peptide: H[Aib]EGTFTSDVSSYLEGQAAREFIAWLVRGRGQEPGQAPK([AEEA-AEEA-γGlu-C18 diacid])EASELSTAALGRLSAELHELATLPRTETGSGSP-NH2
B20: Compound 0092 (peptide)
peptide: H[Aib]EGTFTSDVSSYLEGQAAK([AEEA-AEEA-γGlu-C18 diacid])EFIAWLVRGRGGGGGGGGGGGGGEASELSTAALGRLSAELHELATLPRTETGSGSP-NH2

Starred links: 1 amine or outer side, 2 acyl side, 3 side chain; linkers in the order of their positions; H or OH if unused. Non-standard residues stand in square brackets, D forms with d. Groups on a side chain read outwards from the residue. *: point of attachment. C20 diacid = O=C(O)CCCCCCCCCCCCCCCCCCC(=O)*; C18 diacid = O=C(O)CCCCCCCCCCCCCCCCC(=O)*; C16 diacid = O=C(O)CCCCCCCCCCCCCCC(=O)*; γGlu = O=C(O)[C@H](CCC(=O)[*:2])N[*:1]; AEEA = NCCOCCOCC(=O)O; Aib = CC(C)(N)C(=O)O; Ahx = NCCCCCC(=O)O

The target of the first assay is human GLP-1 receptor (human, UniProt P43220 24-463). The experiment in a line: cell-based or functional assay.
Turning to B1, the “Human GLP-1R potency [EC50 (pM)]” value came to 3.9 pM.
The same measure, in the same setting: the figure for B2 is 1.7 pM; for B3 it is 5.4 pM.
On the same count and under the same terms, with B4 the figure was 5.4 pM.
The same measure, in the same setting: the figure for B5 is 3.9 pM; for B6 it is 2.5 pM; for B7 it is 84.5 pM.
With B8, the “Human GLP-1R potency [EC50 (pM)]” value is 23.8 pM.
The same measure, in the same setting: the figure for B9 is 2.8 pM.
Same read-out and setting: the figure for B10 is 7.5 pM; for B11 it is 0.8 pM; for B12 it is 3 pM.
Still for that read-out and setting: with B13 the figure was 4.7 pM; with B14, 2.1 pM; with B15, 7.5 pM.
In the case of B16, the “Human GLP-1R potency [EC50 (pM)]” value came to 32.6 pM.
Turning to B17, the “Human GLP-1R potency [EC50 (pM)]” value stood at 5.7 pM.
Still for that read-out and setting: with B18 the figure was 3.2 pM.
Still for that read-out and setting: the figure for B19 is 2.2 pM; for B20 it is 18.5 pM.

The next assay addresses T1, human amylin-3 (a) receptor. As to the kind of experiment: cell-based or functional assay.
For B1, the “Human AmyR3 potency [EC50 (pM)]” value was determined as 78.3 pM.
On the same count and under the same terms, the figure for B2 is 46.4 pM.
The same measure, in the same setting: the figure for B3 is 46.2 pM; for B4 it is 37 pM.
On the same count and under the same terms, the figure for B5 is 12.7 pM; for B6 it is 14 pM; for B7 it is 43.9 pM.
Regarding B8, the “Human AmyR3 potency [EC50 (pM)]” value came out at 97.9 pM.
Still for that read-out and setting: the figure for B9 is 14.4 pM.
Still for that read-out and setting: the figure for B10 is 11.3 pM.
For the molecule B11, the “Human AmyR3 potency [EC50 (pM)]” value is 60.9 pM.
Same read-out and setting: with B12 the figure was 14.6 pM; with B13, 11.5 pM; with B14, 25.7 pM.
The same measure, in the same setting: the figure for B15 is 8.6 pM; for B16 it is 70.9 pM.
With B17, the “Human AmyR3 potency [EC50 (pM)]” value is 65.5 pM.
As for B18, the “Human AmyR3 potency [EC50 (pM)]” value was 12.6 pM.
Still for that read-out and setting: with B19 the figure was 55.8 pM; with B20, 10.9 pM.

For the origin of these results see patent publication US20260132182A1 (published 2026).
